The results in this text go back to article PMC7716773, “Known Evolutionary Paths Are Accessible to Engineered ß-Lactamases Having Altered Protein Motions at the Timescale of Catalytic Turnover” (Frontiers in Molecular Biosciences, 2020).

The data set concerns CO/N=C(\C(=O)N[C@@H]1C(=O)N2C(C(=O)O)=C(COC(C)=O)CS[C@H]12)c1csc(N)n1. Kind of data set: purified protein. The note with it: 27°C, cefotaxime 12.5-200 μM, enzyme 5–70 nM.

On to “TEM-1 ß-lactamase (TEM-1) (Escherichia coli)”, for which the Km is recorded as 1,500 ± 900 μM, the kcat is 1 ± 0.5 s⁻¹ and the kcat/Km came to 680 ± 530 M⁻¹ s⁻¹.

In general, kcat refers to the number of substrate molecules converted per active site and unit of time at saturation. The term kcat/Km denotes the second-order rate constant that governs catalysis at low substrate concentration.
